Assay results reported in US20210371505A1 (Regeneron, published 2021).

Biological target: Hemagglutinin of A/Wisconsin/67/2005 (H3N2) overexpressed on 3T3 cells (Influenza A virus A/Wisconsin/67/2005 …)
Assay: cell-based or functional assay

B1: H1H14611N2 (antibody, V domains shown)
VH: EVQLVESGGGLVKPGGSLRLSCAASGFTFSGFSMNWVRQVPGKGLEWVSSISTSGNYMYYADSVKGRFTISRDNAKKSFSLQMNSLRAEDSAIYYCARGGGYNWNLFDYWGQGSLVTVSS
VL: EIVLTQSPGTLSLSPGERATLSCRASQSLNSNYLAWYQQKPGQAPRLLIYGASSRATGIPDRFSGSGSGTDFTLTITRLESEDFAVYYCQQYGNSPLTFGGGTKVEIK
  EC50, ADCC with human donor PBMCs (CytoTox-Glo): 0.146 nM
  EC50, FcγRIIIA activation in the ADCC-Glo reporter bioassay (Promega): 0.871 nM
